The chains are these.
B1: KRT18 (parent)
chain: PQVRDWSHYFKIIEDLRAQIFANT
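Also: lentivirally expressed fusions sorted by FACS into six bins by GFP to DsRed ratio, PSI derived from sequencing read proportions per bin multiplied by bin number.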

Variants of B1 are the subject of the data set. Put plainly: protein stability index of a GFP-peptide fusion (GPS, HEK-293T) (PSI 1-6); higher = more stable. The settings on record: c terminus: a fixed tail appended.
Turning to PQVRDWSHYRKIIEDLRAQIFANT [F10R], the protein stability index was 2.58.
For PQVRDWSHYWKIIEDLRAQIFANT [F10W], the protein stability index turned out to be 2.7.
Turning to PQVRDWSHYKKIIEDLRAQIFANT [F10K], the protein stability index stood at 1.86.
As to PQVRDWSHYHKIIEDLRAQIFANT [F10H], the protein stability index was determined as 2.57.
Turning to PQVRDWSHYCKIIEDLRAQIFANT [F10C], the protein stability index was found to be 2.25.
With PQVRDWSHYMKIIEDLRAQIFANT [F10M] the figure was 2.56; with PQVRDWSHYNKIIEDLRAQIFANT [F10N], 1.89; with PQVRDWSHYYKIIEDLRAQIFANT [F10Y], 1.54.
The result for PQVRDWSHYTKIIEDLRAQIFANT [F10T] reads 3.01; that for PQVRDWSHYPKIIEDLRAQIFANT [F10P], 3.18.
For PQVRDWSHYSKIIEDLRAQIFANT [F10S], the protein stability index was 2.15.
With PQVRDWSHYIKIIEDLRAQIFANT [F10I], the protein stability index stood at 2.23.
The result for PQVRDWSHYVKIIEDLRAQIFANT [F10V] reads 1.69.
As for PQVRDWSHYAKIIEDLRAQIFANT [F10A], the protein stability index amounted to 2.29.
Turning to PQVRDWSHYQKIIEDLRAQIFANT [F10Q], the protein stability index was determined as 3.22.
Take PQVRDWSHYLKIIEDLRAQIFANT [F10L]: the protein stability index worked out at 2.17.
For the variant PQVRDWSHYEKIIEDLRAQIFANT [F10E], the protein stability index turned out to be 2.26.
The result for PQVRDWSHYDKIIEDLRAQIFANT [F10D] reads 1.9; that for PQVRDWSHYGKIIEDLRAQIFANT [F10G], 2.4.
PQVTDWSHYFKIIEDLRAQIFANT [R4T]: the protein stability index came out at 2.13.
On to PQVKDWSHYFKIIEDLRAQIFANT [R4K], for which the protein stability index is 2.29.
Turning to PQVIDWSHYFKIIEDLRAQIFANT [R4I], the protein stability index stood at 2.32.
PQVADWSHYFKIIEDLRAQIFANT [R4A]: the protein stability index worked out at 3.02.
The result for PQVVDWSHYFKIIEDLRAQIFANT [R4V] reads 2.09; that for PQVMDWSHYFKIIEDLRAQIFANT [R4M], 2.69.
With PQVEDWSHYFKIIEDLRAQIFANT [R4E] the figure was 2.43; with PQVLDWSHYFKIIEDLRAQIFANT [R4L], 1.93; with PQVDDWSHYFKIIEDLRAQIFANT [R4D], 2.84.
In the case of PQVPDWSHYFKIIEDLRAQIFANT [R4P], the protein stability index amounted to 2.47.
PQVWDWSHYFKIIEDLRAQIFANT [R4W]: the protein stability index is 2.58.
Consider PQVFDWSHYFKIIEDLRAQIFANT [R4F], for which the protein stability index was determined as 1.6.
With PQVNDWSHYFKIIEDLRAQIFANT [R4N] the figure was 2.63.
PQVSDWSHYFKIIEDLRAQIFANT [R4S]: the protein stability index was 2.61.
The result for PQVYDWSHYFKIIEDLRAQIFANT [R4Y] reads 1.61.
For the variant PQVGDWSHYFKIIEDLRAQIFANT [R4G], the protein stability index amounted to 2.37.
Consider PQVHDWSHYFKIIEDLRAQIFANT [R4H], for which the protein stability index was 2.25.
With PQVQDWSHYFKIIEDLRAQIFANT [R4Q] the figure was 2.53; with PQVCDWSHYFKIIEDLRAQIFANT [R4C], 1.99; with PQVRDWSHYFIIIEDLRAQIFANT [K11I], 2.25.
The result for PQVRDWSHYFMIIEDLRAQIFANT [K11M] reads 1.42; that for PQVRDWSHYFCIIEDLRAQIFANT [K11C], 2.12.
PQVRDWSHYFEIIEDLRAQIFANT [K11E]: the protein stability index is 1.52.
For the variant PQVRDWSHYFLIIEDLRAQIFANT [K11L], the protein stability index amounted to 3.02.
As to PQVRDWSHYFYIIEDLRAQIFANT [K11Y], the protein stability index stood at 1.35.
In the case of PQVRDWSHYFPIIEDLRAQIFANT [K11P], the protein stability index came out at 1.55.
For the variant PQVRDWSHYFTIIEDLRAQIFANT [K11T], the protein stability index was determined as 1.98.
With PQVRDWSHYFVIIEDLRAQIFANT [K11V] the figure was 2.99; with PQVRDWSHYFWIIEDLRAQIFANT [K11W], 3.08; with PQVRDWSHYFSIIEDLRAQIFANT [K11S], 2.75.
With PQVRDWSHYFRIIEDLRAQIFANT [K11R] the figure was 2.11; with PQVRDWSHYFGIIEDLRAQIFANT [K11G], 1.74; with PQVRDWSHYFAIIEDLRAQIFANT [K11A], 2.1.
Turning to PQVRDWSHYFHIIEDLRAQIFANT [K11H], the protein stability index is 2.25.
As to PQVRDWSHYFQIIEDLRAQIFANT [K11Q], the protein stability index was 2.5.
As for PQVRDWSHYFDIIEDLRAQIFANT [K11D], the protein stability index was found to be 1.84.
Take PQVRDWSHYFNIIEDLRAQIFANT [K11N]: the protein stability index was 1.49.
PQVRDWIHYFKIIEDLRAQIFANT [S7I]: the protein stability index amounted to 2.13.
With PQVRDWGHYFKIIEDLRAQIFANT [S7G] the figure was 3.02.
For the variant PQVRDWRHYFKIIEDLRAQIFANT [S7R], the protein stability index was 1.99.
Turning to PQVRDWLHYFKIIEDLRAQIFANT [S7L], the protein stability index came to 1.52.
With PQVRDWFHYFKIIEDLRAQIFANT [S7F] the figure was 1.41; with PQVRDWYHYFKIIEDLRAQIFANT [S7Y], 1.61; with PQVRDWAHYFKIIEDLRAQIFANT [S7A], 2.53.
As for PQVRDWNHYFKIIEDLRAQIFANT [S7N], the protein stability index was 2.08.
As to PQVRDWMHYFKIIEDLRAQIFANT [S7M], the protein stability index worked out at 2.18.
As to PQVRDWHHYFKIIEDLRAQIFANT [S7H], the protein stability index was determined as 2.36.
On to PQVRDWKHYFKIIEDLRAQIFANT [S7K], for which the protein stability index is 2.36.
With PQVRDWQHYFKIIEDLRAQIFANT [S7Q] the figure was 3.49; with PQVRDWTHYFKIIEDLRAQIFANT [S7T], 2.82; with PQVRDWVHYFKIIEDLRAQIFANT [S7V], 2.53.
Turning to PQVRDWWHYFKIIEDLRAQIFANT [S7W], the protein stability index turned out to be 1.95.
The result for PQVRDWCHYFKIIEDLRAQIFANT [S7C] reads 1.94; that for PQVRDWPHYFKIIEDLRAQIFANT [S7P], 2.23.
Turning to PQVRDWEHYFKIIEDLRAQIFANT [S7E], the protein stability index came out at 2.12.
Turning to PQTRDWSHYFKIIEDLRAQIFANT [V3T], the protein stability index turned out to be 2.24.
Turning to PQSRDWSHYFKIIEDLRAQIFANT [V3S], the protein stability index amounted to 2.44.
On to PQWRDWSHYFKIIEDLRAQIFANT [V3W], for which the protein stability index amounted to 1.7.
As for PQYRDWSHYFKIIEDLRAQIFANT [V3Y], the protein stability index came to 2.69.
With PQVRDSSHYFKIIEDLRAQIFANT [W6S], the protein stability index was 2.14.
As for PQVRDVSHYFKIIEDLRAQIFANT [W6V], the protein stability index was 1.92.
For PQVRDHSHYFKIIEDLRAQIFANT [W6H], the protein stability index worked out at 1.85.
Consider PQVRDMSHYFKIIEDLRAQIFANT [W6M], for which the protein stability index stood at 2.15.
PQVRDPSHYFKIIEDLRAQIFANT [W6P]: the protein stability index stood at 2.21.
With PQVRDTSHYFKIIEDLRAQIFANT [W6T], the protein stability index came to 3.16.
As to PQVRDYSHYFKIIEDLRAQIFANT [W6Y], the protein stability index amounted to 2.13.
With PQVRDKSHYFKIIEDLRAQIFANT [W6K], the protein stability index is 1.97.
As to PQVRDISHYFKIIEDLRAQIFANT [W6I], the protein stability index is 2.48.
Take PQVRDESHYFKIIEDLRAQIFANT [W6E]: the protein stability index was 2.97.
Turning to PQVRDQSHYFKIIEDLRAQIFANT [W6Q], the protein stability index was 2.41.
For PQVRDGSHYFKIIEDLRAQIFANT [W6G], the protein stability index was determined as 2.14.
With PQVRDFSHYFKIIEDLRAQIFANT [W6F] the figure was 2.3; with PQVRDLSHYFKIIEDLRAQIFANT [W6L], 2.22.
For PQVRDRSHYFKIIEDLRAQIFANT [W6R], the protein stability index stood at 2.13.
For the variant PQVRDCSHYFKIIEDLRAQIFANT [W6C], the protein stability index stood at 1.88.

For the origin of these results see the supplement of paper PMC10567573.
